Target: T1, recombinant human C3d (human, UniProt P01024 996-1303, limits assumed)
T1 construct: domain: C3d; Also used for statements that speak only of C3d or human C3d; also called wild-type C3d
Assay: radiolabelled antibody; method and antigen not stated

T1 sequence (P01024 996-1303 limits assumed): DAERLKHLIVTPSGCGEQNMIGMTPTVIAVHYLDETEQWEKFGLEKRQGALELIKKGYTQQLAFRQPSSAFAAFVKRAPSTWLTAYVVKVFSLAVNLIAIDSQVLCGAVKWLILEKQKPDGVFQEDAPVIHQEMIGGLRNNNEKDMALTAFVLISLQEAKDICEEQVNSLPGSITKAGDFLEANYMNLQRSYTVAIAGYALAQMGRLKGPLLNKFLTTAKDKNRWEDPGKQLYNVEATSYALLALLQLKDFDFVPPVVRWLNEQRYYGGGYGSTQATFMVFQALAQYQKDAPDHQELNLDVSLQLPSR

B1: mouse monoclonal antibody 3d29 (antibody, mouse IgG2a, V domains shown)
VH: EVQLQQSGPVLVKPGASVKMSCKASGYTFTDYYMNWVKQSHGKSLEWIGVINPYNGGTSYNQKFKGKATLTVDKSSRTAYMELNSLTSEDSAVYYCSRGGPYWGQGTTLTVSS
VL: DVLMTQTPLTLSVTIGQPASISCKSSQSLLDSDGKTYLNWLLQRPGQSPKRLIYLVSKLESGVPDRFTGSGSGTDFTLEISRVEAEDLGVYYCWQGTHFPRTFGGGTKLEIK
notes: Group I clone; Also used FITC-labelled, biotinylated, radiolabelled and conjugated to SPIO nanoparticles; told under assay; also called clone 29; C3d29
Work on B1 yielded a Kd of 0.43 nM.

Source: patent US20200308295A1 (published 2020)
